Article PMC11319651, “Distinct conformational states enable transglutaminase 2 to promote cancer cell survival versus cell death” (Communications Biology, 2024)
Numbering of substitutions follows the chain as printed. Numbers in names are those of the source.

What was measured:
Transglutaminase 2 (TG2) = biological target: T1, Transglutaminase 2 (TG2) (Homo sapiens, UniProt P21980); experiment: biochemical; parameters: inhibition of TG2 protein crosslinking activity, gel-based read-out
T1 construct: gene TGM2; N-terminal six-histidine tagged human TG2
T1 sequence (P21980 1-687): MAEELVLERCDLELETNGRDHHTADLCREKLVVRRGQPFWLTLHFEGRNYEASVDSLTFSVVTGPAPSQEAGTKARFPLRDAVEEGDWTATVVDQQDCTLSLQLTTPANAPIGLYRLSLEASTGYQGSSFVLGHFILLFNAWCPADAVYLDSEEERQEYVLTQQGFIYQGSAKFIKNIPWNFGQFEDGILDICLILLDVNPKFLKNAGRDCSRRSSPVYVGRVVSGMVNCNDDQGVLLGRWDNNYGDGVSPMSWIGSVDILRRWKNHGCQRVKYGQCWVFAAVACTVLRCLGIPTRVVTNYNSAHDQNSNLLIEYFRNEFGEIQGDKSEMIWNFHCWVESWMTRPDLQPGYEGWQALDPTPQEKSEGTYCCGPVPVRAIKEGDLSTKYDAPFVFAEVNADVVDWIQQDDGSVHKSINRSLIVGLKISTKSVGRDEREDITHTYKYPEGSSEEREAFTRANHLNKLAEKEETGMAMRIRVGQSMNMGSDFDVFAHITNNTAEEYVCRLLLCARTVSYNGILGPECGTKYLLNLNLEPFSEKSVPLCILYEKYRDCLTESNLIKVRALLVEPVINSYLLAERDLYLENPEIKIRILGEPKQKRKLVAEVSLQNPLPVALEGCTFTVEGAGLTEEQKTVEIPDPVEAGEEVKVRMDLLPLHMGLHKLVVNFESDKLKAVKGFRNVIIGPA
Text: (the LM-series, Fig. S6).

[1] = biological target: Transglutaminase 2 (TG2), wildtype, recombinant human (human) (UniProt P21980); experiment: SAXS; static SAXS, 25 µM (2 mg/mL) TG2 with 2 mM Ca2+ for 5 min, TG2 Storage Buffer; DAMMIF envelopes (P1, P2), CRYSOL fit to the open state dimer; deconvolution into monomer and dimer
[2] = biological target: Transglutaminase 2 (TG2), wildtype, recombinant human (human) (UniProt P21980); experiment: SAXS; time-resolved SAXS, Kenics chaotic advection mixer, TG2 1 mg/mL final, 2 mM Ca2+, 0-631 ms; deconvolution into closed state monomer and open state dimer
[3] = biological target: the molecule itself; experiment: SAXS; static SAXS, TG2 R580K with GTP at concentrations greater than 1 mM (up to 5 mM); CRYSOL fit to the open state dimer (from crystal packing of PDB 2Q3Z)

Molecule: O=C1NC(=O)N(c2cccc(Cl)c2)C(=O)/C1=C/Nc1ccc(Cl)c(CN2C(=O)c3ccccc3C2=O)c1 [LM11]
- IC50 (Transglutaminase 2 (TG2)): 10 µM

Molecule: Transglutaminase 2 (TG2), wildtype, recombinant human (from UniProt P21980 1-687) (enzyme)
- percent dimer after five minutes with Ca2+ [1]: 100%
- stoichiometry N [1]: 2
- percent dimer at t = 0 ms [2]: 61%

B1: TG2 R580K mutant (enzyme, human)
chain: T1 sequence (P21980 1-687) with R580K
notes: human transglutaminase 2 (TGM2), UniProt P21980, with the substitution R580K; The methods describe expression and purification only for TG2 in general; also called TG R580K
- stoichiometry N [3]: 2
